The results in this text go back to paper PMC8133803.

This data set concerns the target SARS-CoV-2 spike S1+S2 ECD-His (SARS-CoV-2 (2019-nCoV), UniProt P0DTC2 16-1213). The experiment in a line: SPR. A general note: In SPR one partner is held on a chip, and binding of the other changes the refractive index at the surface.

For CACCAATATTTACGTTCTACTCTCCAATA (ssDNA, 5' BiotinTEG) [apt-NS], the binding result is “no binding”.
